The values that follow are results of earlier work, collected in publication PMC4346141.

Where only a bound is given, the exact number is not on record here.

In general, Kd refers to a measure of binding affinity in units of concentration.

For one series, the target named is IL12Rβ1 (Homo sapiens) (UniProt P42701).
For series [1], the target named is IL12Rβ1 monomer (Homo sapiens) (UniProt P42701).
The target of the next series is IL12Rβ2 (Homo sapiens) (UniProt Q99665).
Series [2] concerns the target IL12Rβ1 clone 3 (Mus musculus) (UniProt Q60837).
For series [3], the target named is IL12Rβ1 clone 2 (Mus musculus) (UniProt Q60837).
IL12Rβ1 clone 2 (Mus musculus), sequence (Q60837 20-565): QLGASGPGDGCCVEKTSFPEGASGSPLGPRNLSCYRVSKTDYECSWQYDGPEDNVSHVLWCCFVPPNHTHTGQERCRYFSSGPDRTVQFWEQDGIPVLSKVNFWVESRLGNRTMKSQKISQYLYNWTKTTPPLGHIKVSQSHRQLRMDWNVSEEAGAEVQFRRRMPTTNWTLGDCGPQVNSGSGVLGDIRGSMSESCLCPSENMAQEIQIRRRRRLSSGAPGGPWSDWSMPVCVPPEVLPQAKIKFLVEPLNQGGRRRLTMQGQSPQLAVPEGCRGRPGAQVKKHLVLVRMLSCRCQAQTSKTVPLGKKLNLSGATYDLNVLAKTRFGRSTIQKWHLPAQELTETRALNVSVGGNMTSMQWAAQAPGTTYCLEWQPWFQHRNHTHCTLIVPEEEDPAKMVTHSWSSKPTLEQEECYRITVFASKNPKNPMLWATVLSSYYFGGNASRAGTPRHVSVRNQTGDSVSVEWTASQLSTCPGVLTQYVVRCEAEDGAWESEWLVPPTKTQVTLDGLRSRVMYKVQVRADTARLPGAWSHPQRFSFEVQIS

IL12, sequence (P29459 23-219): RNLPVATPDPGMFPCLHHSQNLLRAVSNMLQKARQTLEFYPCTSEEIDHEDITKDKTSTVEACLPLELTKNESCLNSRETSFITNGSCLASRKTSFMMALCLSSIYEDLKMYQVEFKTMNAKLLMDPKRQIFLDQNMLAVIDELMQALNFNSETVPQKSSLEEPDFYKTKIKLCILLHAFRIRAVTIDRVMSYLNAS
IL12, sequence (P29460 23-328, further chain): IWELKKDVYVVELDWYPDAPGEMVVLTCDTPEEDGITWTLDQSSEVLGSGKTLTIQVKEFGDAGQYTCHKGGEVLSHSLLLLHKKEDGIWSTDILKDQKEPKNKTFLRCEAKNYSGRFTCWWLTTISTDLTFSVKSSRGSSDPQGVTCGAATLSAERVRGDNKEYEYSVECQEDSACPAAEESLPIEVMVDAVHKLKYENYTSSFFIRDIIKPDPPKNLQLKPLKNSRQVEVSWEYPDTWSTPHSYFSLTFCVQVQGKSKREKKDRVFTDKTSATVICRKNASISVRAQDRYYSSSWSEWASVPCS
IL12Rβ1 clone 3 (Mus musculus), sequence (Q60837 20-565): as the sequence (Q60837 20-565) above
IL12Rβ2 (Homo sapiens), sequence (Q99665 24-622): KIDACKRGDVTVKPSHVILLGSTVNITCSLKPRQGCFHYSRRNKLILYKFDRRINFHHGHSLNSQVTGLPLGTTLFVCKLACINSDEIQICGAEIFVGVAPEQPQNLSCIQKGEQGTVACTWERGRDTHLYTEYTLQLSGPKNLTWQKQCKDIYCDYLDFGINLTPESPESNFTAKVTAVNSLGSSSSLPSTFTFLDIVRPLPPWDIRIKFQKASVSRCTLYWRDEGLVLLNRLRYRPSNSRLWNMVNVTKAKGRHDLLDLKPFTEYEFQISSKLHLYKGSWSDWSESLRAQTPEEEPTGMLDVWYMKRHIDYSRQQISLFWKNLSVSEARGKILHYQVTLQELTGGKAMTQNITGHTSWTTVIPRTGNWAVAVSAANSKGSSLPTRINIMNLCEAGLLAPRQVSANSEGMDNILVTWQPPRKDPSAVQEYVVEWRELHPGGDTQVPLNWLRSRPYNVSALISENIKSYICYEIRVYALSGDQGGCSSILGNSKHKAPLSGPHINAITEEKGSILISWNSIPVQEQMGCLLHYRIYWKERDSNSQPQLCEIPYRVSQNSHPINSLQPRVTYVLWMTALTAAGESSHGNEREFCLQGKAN

As for IL12 (from UniProt P29459), the dissociation constant Kd was 3 nM with IL12Rβ1 (Homo sapiens), over 50 nM in series [1] and 5 nM with IL12Rβ2 (Homo sapiens).

In the case of IL12 (from UniProt P43431), the values for the Kd in series [2] and in series [3] were 1.3 nM and 0.899 nM, respectively.
